This data set can be described thus: yeast display, Sf9 membrane polyspecificity reagent, FACS + sequencing; frameworks hold sequencing errors. The method, boiled down:
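Galactose-induced (36–48 hours) yeast carrying a synthetic nanobody display library were exposed to 10% biotinylated, detergent-solubilized Sf9 membrane reagent at 4 °C for 1 hour. FACS followed streptavidin microbead enrichment, using low and high (top ~1%) gates for expression (anti-HA) and reagent binding (streptavidin). Colony PCR, MiSeq 2 × 250 sequencing and CDR-length filtering followed. Labels for polyreactivity reflect the gate of origin.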
“QVQLVESGGGLVQAGGSLRLSCAASGGTFTDYAMGWYRQAPGKERELVAAISSVGSTNYADSVKGRFTITRDNAQNTVYLQMNSLNPEDTAVYYCAADVYRYWISEYDDYWGQGTQVNVSS”: the “polyreactivity (PSR sort gate)” value is “low polyreactivity”.
Take “QVQLVESGGGLVQAGGSLRLSCAASGGTFTFYAMGWYRQAPGKERELVATINWSGGSTYYADSVKGRFTISRDNAKNTVYLQMNSLKPEDTAVYYCNAAWPYKSVEYWGQGTQVTVSS”: the “polyreactivity (PSR sort gate)” value is given as “low polyreactivity”.
With “QVQLVESGGGLVQAGGSLRLSCAASGGTFTGYAMGWYRQAPGKERELVAAIRSRGGSTYYADSVKGRFTISRDNAKNTVYLQLNSLKPEDTAFYYCNAVSRFSYGYDYWGQGTQVSVSS”, the “polyreactivity (PSR sort gate)” value is given as “high polyreactivity”.
In the case of “QVQLVESGGGLVQAGGSLRLSCAASGGTFTGYAMGWYRQEPGKERELVAGISRSGGSTYYADSVKGRFTISRDNAKNTVYLQMNSLKPEDTAVYYCAKDVLKYRYWYYPGYDYWGQGTQVTVSS” it was “high polyreactivity”; in that of “QVQLVESGGGLVQAGGSLRLSCAASGGTFTRYAMGWYRQAPGKEREFVAAISGSGGSTYYADSVKGRFTISRDNAKNTVYLQMNSLKPEDTAVYYCNKVPVYPPSYYWGQGTQVTVSS”, “low polyreactivity”.
Consider “QVQLVESGGGLVQAGGSLRLSCAASGGTFTTNAMGWYRQAPGKERELVAAITSSGVRTYYADSVKGRFTISRDNAKNTVYLQMNSLKPEDTAVYYCNAVTRYVRLTDDDYWGQGTQVTVSS”, for which the “polyreactivity (PSR sort gate)” value was “high polyreactivity”.
In the case of “QVQLVESGGGLVQAGGSLRLSCAASGGTFTYYAKGWYRQAPGKERELVAAISWSDTSTYYADSVKGRFTISRDNAKNTVYLQMNSLKPEDTAVYYCAAEFYVRYQADYEYWGQGTQVTVSS” it was “high polyreactivity”; in that of “QVQLVESGGGLVQAGGSLRLSCAASGGTFTYYTMGWYRQAPRKERELVAAISTGGRTYYADSVKGRFTISRDNAKNTVYLQMNSLKPEDTAVYYCDADTYTSRSRYSGSGGYDYWGQGTQVTVSS”, “low polyreactivity”; in that of “QVQLVESGGGLVQAGGSLRLSCAASGGTFVSYALGWSRQAPGKERELVAAITYSGGSTYYADSVKGRFTISRDTAKNTVYLQMNSLKPEDTAVYYCAADLGRNLLHTYYYWGQGTQVTVSS”, “low polyreactivity”.
Regarding “QVQLVESGGGLVQAGGSLRLSCAASGGTFWIYAMGSYRQAPGKERELVAGISHGDSTYYADSVKGRFTISRDNAKNTVYLQMNSLKPEDTAVYYCARDYRNPPFAYEYWGQGTQVTVSS”, the “polyreactivity (PSR sort gate)” value is “low polyreactivity”.
Take “QVQLVESGGGLVQAGGSLRLSCAASGGTFWYNAMGLYRQAPGKERELVANIRRSGGRTNYADSVKGRFTISRDNAKNTVYLHMNSLKPEDTAVYYCAARVTPYRGFYYWGQGTQVTVSS”: the “polyreactivity (PSR sort gate)” value is reported as “high polyreactivity”.
Take “QVQLVESGGGLVQAGGSLRLSCAASGGTFYDYAMGWYRQAPGKERELVAAISASGDSTYYADSVKGRFTISRDNAKNTVYLQMNSLKPEDTAVYYCAAEFTAFDGFDYWGQGTQVNVSS”: the “polyreactivity (PSR sort gate)” value is listed as “low polyreactivity”.
With “QVQLVESGGGLVQAGGSLRLSCAASGGTFYFYAMVWYRQAPGKERELVAAISRSGGSTYYADSVKGRFTISRDNAKNTVYLQMNSLKPEDTAVYYCAARYTGGGIRYDYWGQGTQVTVSS”, the “polyreactivity (PSR sort gate)” value is on record as “high polyreactivity”.
As for “QVQLVESGGGLVQAGGSLRLSCAASGGTFYQYAMGWYIQAPGKERELVAAISRSGGRTYYADSVKGRFTISRDNAKNTVYLQMNSLIPEDTAVYYCAADDVGPPDFYYWGQGTQVTVSS”, the “polyreactivity (PSR sort gate)” value is “high polyreactivity”.
Under “QVQLVESGGGLVQAGGSLRLSCAASGGTFYVNAMGWYRQAPGKERELVADISYSGGRTYYADSVKGRFTISRDNAKKTVYLQMNSLKPEDTAVYYCAADPYWVGYGSPFGYWGQGTQVTVSS” stands “high polyreactivity”; under “QVQLVESGGGLVQAGGSLRLSCAASGGTFYYYAMGWYRQAPGKERELVAAINVSGGNTYYADSVKGRFTISRDNAKNTVYLQMNSLKPEDTAVYYCAADPGARYYYWGQGTQVTVSS”, “low polyreactivity”.

The record behind these values is the nanobody polyreactivity screen of Harvey et al. (2022).
